The DeepSol protein solubility set

Experiment: soluble on expression in E. coli; label from the status in PepcDB or PDB records

Sequence | soluble on expression in E. coli
MGSDKIHHHHHHMAVSLWQQCIGRLQDELSAQQFSMWIRPLQAEMEGDTLVLYAPNRFVLDWVRDKYINSINQFFTEQLGDNAPKLRFDIGSRPSAKPQAPAPAAVKAAAPQPKPGNSFVSQPEPAVSNHRSNINPTYQFDNFVEGKSNQLGKAAALQVAENPGGAYNPLFLYGGTGLGKTHLLHAVGNGIIKNNPNAKVVYMHSERFVQDMVKALQNNAIEEFKRYYRSVDALFIDDIQFFANKDRSQEEFFHTFNALLEGNHQIILTSDRYPKEIDGVEDRLKSRFGWGLTVAIEPPELETRVAILMRKAQESGINLPDEVAFFIAKRLRSNVRELEGALNRVIANANFTGRPITIDFVREALRDLLALQEKLVTIDNIQKTVAEYYKIKMADMLSKRRSRSVARPRQMAMALSKELTNQSLPEIGDAFGGRDHTTVLHACRKIAQLREESHDIKEDYANLIRTLSS | not soluble
MSLKITKVEVIPISTPMKRAQLMRGATLARIDGVLLKLHSDEGLVGIADAGDTSSWYRGETQDSITSMICDFFAPKVLLGEDPTKIEKIVGRMDILTRDNNQAKATVDFALHDLVGKRFGVPVYQLLGGKTIERIPLGLVLGAGEPEAVAEEALAVLREGFHFVKLKAGGPLKADIAMVAEVRRAVGDDVDLFIDINGAWTYDQALTTIRALEKYNLSKIEQPLPAWDLDGMARLRGKVATPIYADESAQELHDLLAIINKGAADGLMIKTQKAGGLLKAQRWLTLARLANLPVICGCMVGSGLEASPAAHLLAANDWIAQFPQENAGPLHIHDCLNSRDIDNDIALNVPRFEGGYLYPNDGPGLGIELNEDLVRRLVTPGKAARVVTAEGHHHHHH | soluble
MSTRPEVFDLIVIGGGPGGSTLASFVAMRGHRVLLLEREAFPRHQIGESLLPATVHGICAMLGLTDEMKRAGFPIKRGGTFRWGKEPEPWTFGFTRHPDDPYGFAYQVERARFDDMLLRNSERKGVDVRERHEVIDVLFEGERAVGVRYRNTEGVELMAHARFIVDASGNRTRVSQAVGERVYSRFFQNVALYGYFENGKRLPAPRQGNILSAAFQDGWFWYIPLSDTLTSVGAVVSREAAEAIKDGHEAALLRYIDRCPIIKEYLAPATRVTTGDYGEIRIRKDYSYCNTSFWKNGMALVGDAACFVDPVFSSGVHLATYSALLVARAINTCLAGEMSEQRCFEEFERRYRREYGNFYQFLVAFYDMNQDTDSYFWSARKIINTEERANEAFVRLIAGRSNLDEPVFQSVAKDFFTEREGFGAWFGGLVTSMAKGDGGGLMVGEGATDATESTGFAPENFMQGFTREITELQHLAMFGEDRGPETPLWSGGLVPSRDGLAWAVESGEDAAG | soluble
MKIKHLPFDQNRNGWSADLVDKPNYPQQRGKTTADWLVIGAGYAGIAFAQRLAEQRPDKHIILLDAGEIGDNASGRNSGFVIDLPHNIGSSTAELEKAAAYRRLLQSGVAHLKEKVDRHAIACDWSVAGKYHCAVSSTFNGLIDTYVRELNGLGEPYQVVEKDELARRLGTSFYQRAVYTPNCILLNPAALVIGLVASLPKNVTVYAHSPALNIETGSRIRVETPYGEIQADKLMMAINGAARGLPLFNGRVFAVTTFATLTEPLNAEQTARMGDMPDWGLTPVNALASATLRYTRDHRFLIREHVKFAPELVNSAVETGRHARRHAAIFARMFPQLSDVKMAHTWSGLISVTRNGAPIWGQLSDNVFASAGCNGAGLSKQTAAGHILADLALGEDNPLISDMQSLGQANYLPPRPFLDVGVNGYLTSERWKARSERLEHHHHHH | not soluble
GMVPMTRFDSATEVVRVGENRYAVELDPGYLIGTAMNGGYLMTVLQRSALAESDHLHAVSSSYHFHRPASSGPAEIETRVLKRGRTVTTVQTTLFQEGRTILTGTLATATLDPHAEPRYAAPQPAIPPQHQCRRVDPRQSHLPDDGFLARVDVDFSPDSYAALARERTVTTPELCGYVDLSARDGGSAKDPLAFLPLAVDALPPIVSLLVDWSWAPTVELTWHLRAIPEPGPLAFRSTCALVSDGWFDENVDLWDARGRLVAQSRQLARVGR | soluble
SNAMKNYTLISPCFFGMEKMLAREITNLGYEIIKTEDGRITYKTDEFGIAKSNMWLRCAERVHLKIAEFEAKSFDELFENTKRINWSRYIPYGAQFPISKASSIKSKLYSTPDVQAIVKKAIVESLKKSYLEDGLLKEDKEKYPIFVFIHKDKVTISIDTTGDALHKRGYREKANKAPIRETLAAGLIYLTPWKAGRVLVDPMCGSGTILIEAAMIGINMAPGLNREFISEKWRTLDKKIWWDVRKDAFNKIDNESKFKIYGYDIDEESIDIARENAEIAGVDEYIEFNVGDATQFKSEDEFGFIITNPPYGERLEDKDSVKQLYKELGYAFRKLKNWSYYLITSYEDFEYEFGQKADKKRKLYNGMLKTNFFQYPGPKPPRNNK | soluble
MGSDKIHHHHHHMTQTSSPLRNRYEFLLLFDVENGNPNGDPDSGNAPRVDPEDGHGLVSDVALKRRVRNYVQAAGEQIFIQHGTNLNRPIFQAKQASGGGSKGKQDVDAARRWMCEHFYDVRTFGAVMSTGANAGQVRGPVQLTFARSLDPVFAIEASITRGAVAEDIKNAKTLDDFLNWEAQQDEDKLRTMGRKSLIPYGLFATKGFVSAHLAQGTGFSEADLKLLLEALLNMYEHDRSASKGLMSSRRLFVFRHVGTDSDPQQRARQAVLGCAPAHKLLDLGQVIEVRRKDEHKPARALSDYEVTVHLDRLPAGVELLDLDSWDEARYHDGWQSR | not soluble
MSLKAAQYAGNKSFNVVDGAKVPPAEGEVCLQVGYTGICGTDMHIYHGVMDQRVSIPQIIGHEMSGTVVEVGAGVTDYTVGDRVVVRPLDYCGDCPACNAGHSHVCHNLKFMGIDSPGAFQSYWTVKARTLHALPDNVSLKQGALIEPLSVACHDVARTRLQAGEKALVIGGGPIGQLVALVAKSVGAEVMISEVSEARLKFAAERGIKTVNPVTDDIEAVVKEWTGGKGADAVFEVSGVAAAVETMTKVAAVRGRICMVAIHSQKPQVDLFQFFWKELELLGARVYESADFEHAIELVASGKIDVDSFISSVTSLNDIGTAFASMDNNPAGMKALVECNEGHHHHHH | soluble
SEENEEEEELRPTALYTVGGSDEFTFVSPDGLSGQYTGPDHDGVVLQTENPAPTNCLAYYFEVHIMNAGEKGEIAIGFSKEHIYSEGYTVRSCAYIGNSGLICSQNGDGDRTVAKASDTYTTGDLVGCGIDSVSQEFFFTKNGTIVGTIPRQFRRPVYPTIVLHSQNEAVTVNFGGQIAFSFDFEVRSYFSFLA | soluble
KGIFSWESALTATYNKNEILDLNSETPMFINQIGNSYVTMLKAGYPINVFYGYVTDGLFQNWGEVNRHATQPGAAPGDIRFRDLNNDGVINDEDRTILGNPNPNWFFSLSNNLSYKGWELSVFLQGVAGNKIYNANNVDNEGMAAAYNQTTAVLNRWTGEGTSYSMPRAIWGDPNQNCRVSDRFVENGSYLRLKNITLSYTLPKKWLQKIQLENARISFSCENVATITRYSGFDPEVDVNGIDSSRYPISRTFSMGLNFNF | not soluble
EKMTRDEIAYMLTNSEETLDADEIEMLQGVFSLDELMAREVMVPRTDAFMVDIQDDSQAIIQSILKQNYSRIPVYDGDKDNVIGIIHTKSLLKAGFVDGFDNIVWKRILQDPLFVPETIFVDDLLKELRNTQRQMAILLDEYGGMAGLVTLEDLLEEIVGEID | not soluble
MKRLIGLVIVALVLLAACGSNNDKKVTIGVASNDTKAWEKVKELAKKDDIDVEIKHFSDYNLPNKALNDGDIDMNAFQHFAFLDQYKKAHKGTKISALSTTVLAPLGIYSDKIKDVKKVKDGAKVVIPNDVSNQARALKLLEAAGLIKLKKDFGLAGTVKDITSNPKHLKITAVDAQQTARALSDVDIAVINNGVATKAGKDPKNDPIFLEKSNSDAVKPYINIVAVNDKDLDNKTYAKIVELYHSKEAQKALQEDVKDGEKPVNLSKDEIKAIETSLAK | soluble
MQRIRIIDSHTGGEPTRLVIGGFPDLGQGDMAERRRLLGERHDAWRAACILEPRGSDVLVGALLCAPVDPEACAGVIFFNNSGYLGMCGHGTIGLVASLAHLGRIGPGVHRIETPVGEVEATLHEDGSVSVRNVPAYRYRRQVSVEVPGIGRVSGDIAWGGNWFFLVAGHGQRLAGDNLDALTAYTVAVQQALDDQDIRGEDGGAIDHIELFADDPHADSRNFVLCPGKAYDRSPCGTGTSAKLACLAADGKLLPGQPWRQASVIGSQFEGRYEWLDGQPGGPIVPTIRGRAHVSAEATLLLADDDPFAWGIRR | soluble
MSLRDEFSLIRSISPANVHQPSLHVGIGDDAAIYEGAPEMEEVLCVDTMVEEIHFRRDTLTPFQIGYKSLAINISDLAAMGATPKFYLVSIAVPPQWSDREIKTLYRGMAECAAPYRMDLIGGDTVSTNAKLVVTVTAVGHVPKGTRLLRQRARPGDVVFLTGTVGQSAAGLELLNKKGLHGPFTEEEELLVLAHQQPQPQVEAGHLFARSGYRIALNDVSDGVASEANELAEASKVKLVLKANTIPLHPAMETFSKEQQLEWALFGGEDFQLIGTAAVDAFASLQQLAIQRGISLTEIGYVEAGSPVVELEEGTARSVLKKSGYNHFAKEGHHHHHH | soluble
GMENIPFLRASTVPVIEYLDELKEIDASHIYTNYGPINQRFEQTIMSGFFQNRGAVTTVANATLGLMAAIQLKKRKKGKYALMPSFTFPATPLAAIWCGLEPYFIDISIDDWYMDKTVLWDKIEELKEEVAIVVPYATFGSWMNLEEYEELEKKGVPVVVDAAPGFGLMNGGMHYGQDFSGMIIYSFHATKPFGIGEGGLIYSKNEEDIQRIKRMGNFGFDTNRECTMMGFNCKMSEYAAAIGIATMKKWDDKLKERTRISEWYKQLLQSNGLMKKGWQLQKTEAVIQQFMPILCPEEVRNKQVIEDLKKQKIEARLYFSPSCHQQVLFRNYKSTDLTRTNKIAKRIVSLPLWEGMTKEIVEQIVICLGQKVVSADE | soluble
MGSDKIHHHHHHMGIRILNDLMLDKSALLFGVSKYLEKGIITGNILIHKSLLAELEKESNDGLVSAEIALDEVKKLKDITERILVNFEIVGENSKKGEANELSREYCLEKGCIMVTADETQKKICDVMGIQYSFLQPLEQSLSFESFFDDETMSLHIKEDTVPRAKKGKPGNWKFVNLSNKPMLSVDVKRIANEIINGVRFIKGSFIEIERKGSLIIQLGNYRVVITRPPLSDGWEITITRPVVRKRLEDYGLDERLIKRLEERAEGIIIAGAPGMGKTTFAQALSEYYMRLGKIVKTIESPRDMHLPPEITQYSKNYAEIGELHDILLLSRPDYTVYDEMRNDEDFKLYIDLRLAGIGMVGVVHATSPIDAIHRFVNRVDIGTIPNILDTIIFINSGNVSKVYTLEITVKVPAGLKEADLARPVVEIKDLVTGNTEYEIYVFGEQTMIVPVNRGITLNNMEFKISKIVNNIIPKATVKYEDGEYVIVIPKEEIGKYNRKLVQRLKRLEKKNNIKIKIKLSD | not soluble
MSLIEEEVLKIIKPTEEDKKGIEKVLEIIRERLNKLDFEVEGSFRKGTWLRQDTDIDVFVFYPKDVGKEYLERNALNDIINRIKDLDYTLAYAEHPYVIVNINNVEVDIVPALRVESGDKAITAVDRTPFHTKYVTSHLDERGKDEVRLLKRFMKGIGVYGAELKVQGFSGYATELLIIYYGNFRKVLEEASKWKHPIKIELTKPMKIFSEPLIIPDPVDPKRNVTAAVSLKNIATFSIAAKYYLKNPSIEFFFPSKKVEEKVKGDVLILRLNLDEKSSEDIVWGQIKRSVNKIERALKQYGFRVIDVQAWGDTNNITIAVQLESKNIGQYYLNIGPQYYSGTIEDFIQKNDNIWVGEDGRLYSIKERKEYDAETIAKKNIVLKVKYNIESYWLQNTEDQQIMKFLRKTPTWLKEGHHHHHH | not soluble
